From publication PMC3945225, “RBPJ, the Major Transcriptional Effector of Notch Signaling, Remains Associated with Chromatin throughout Mitosis, Suggesting a Role in Mitotic Bookmarking”

Target: Flag-RBPJ (mouse, UniProt P31266-2 1-487)
Assay: EMSA; 1 nM DNA; 12 mM Hepes pH 7.9, 10 mM Tris-HCl pH 7.5, 60 mM KCl, 8% glycerol, 4 mM MgCl2, 0.02% NP40, 30 C; 5% PAGE 0.5x TBE
Settings: protein: recombinant; tags: Flag; label: 32P (T4 PNK); blunt

Flag-RBPJ, sequence (P31266 other isoform, or with tags, fused parts or gaps): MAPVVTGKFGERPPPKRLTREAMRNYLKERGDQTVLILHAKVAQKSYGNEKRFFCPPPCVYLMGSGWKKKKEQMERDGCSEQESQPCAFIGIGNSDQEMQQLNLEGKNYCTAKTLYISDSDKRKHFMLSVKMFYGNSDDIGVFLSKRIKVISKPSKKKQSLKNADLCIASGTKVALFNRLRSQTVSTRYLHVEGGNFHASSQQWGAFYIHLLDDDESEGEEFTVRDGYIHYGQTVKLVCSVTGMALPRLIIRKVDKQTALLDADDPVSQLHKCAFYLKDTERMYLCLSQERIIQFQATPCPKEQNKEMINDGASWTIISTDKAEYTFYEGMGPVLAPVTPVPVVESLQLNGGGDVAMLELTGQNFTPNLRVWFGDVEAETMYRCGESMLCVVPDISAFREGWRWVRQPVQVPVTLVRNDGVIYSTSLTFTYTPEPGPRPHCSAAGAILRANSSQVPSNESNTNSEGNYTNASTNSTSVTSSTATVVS

B1: 16 bp RBPJ motif DNA (dsDNA)
DNA 1: CACTGGGAACCTACCC
DNA 2: GGGTAGGTTCCCAGTG
Q: Does B1 bind?
A: binds
